This data set can be described thus: soluble on expression in E. coli; label from the status in PepcDB or PDB records.
In the case of “MAHHHHHHMTTERPCGERNGHTHSSSAADGTFDQPDTAVLLYGGLPPMPKPSVQRGEGSMEREFDQAAVSPSPVAAVAASSVVGGDTSPGSSPHIGVHEADDPTKNFDNSTEEEHMDLFISAMSPQNCVDRPQRRARGALMPPLPSPGEADAGAMMQSEMHTTPMTKTHTPDLRVTMYENQELRRELATVRASLRQALQTIETRELECVELHRLVDEMQAQLNGLKPEANLRPTQTDAQGNGEGSTRPEKSAFKLQATKDTTGPQIIGKYESKEEWRMTPSRELFAAEVKHDAHTEASTTTAIAAVKMNATDAPTTVEETISMGQLCEERDRLAKELAQTKIVVAEQETVLDRLGLRFPYPGALVAAARRTIPAFEPLRKSRKQKPGPLVVDRTTQMRGERAERRE”, the “soluble on expression in E. coli” value is reported as “not soluble”. In the case of “MAHHHHHHMVLPLPKLIQSNEGRVLYHVTNHPIRTIKKKIEGFFKYESLDNLNSEISVRQNFDELFVPLTHPARNIKDTFYLSENYVKHFSTLHNNLYTQLENTNGIYKYYLVTKFVHHHNILLKRTHMTAHLPDLLRRNYKNVIYTGSVYRRDEIDRFHFPIFHQTDGFLIRPDNFDVETDLKKNLEQLIRYLFDASDVQMKWEDNTSFPFTDPSYELYIRGESSKEIRTTGDDIGGESRWVEVLGCGKIKKEVIAMAMHAEDIRQIIEDEIARHDRGLLDELQSIETAVNEAAVNEAAVNEGATNEGAVNEGATNEAVARKSNVEWIYPNVPTPKDILDKLCTTTLNNRIEAQMNKFLKTIRYQGWAFGIGLERLAMLLYHIQDIRLFWSNDNRFIDQFEEGVITTFHPFSNFPPVEKDISFYITSQFKEDLFFQICRDVASENIEQVKKIDSYHNPKNNQTSVCYRITYRSHTQNLTHKTVNEMQSKIVQMLVKQCAVTIR” it was “not soluble”. In the case of “MAHHHHHHMVLRPRPLKHSLLRRGRINPAATHREVSLPILLTLVTCPIPRPMQVDRSLWAEGPLQAQHPHSPTHLSRQQVECMLLAGVPPRAFRLQDKPSKVSETAKEAPQGDEEGEPRAQHEADHTTKGGGDDFLDKNGNEKREPPAGSQTAPLPDGGKNAHYYFFLLLPARPATRCHLSADEVVEQRQKFSAMKQLPLGELSVTEVLLNAQPLAHSQGAWTS” it was “not soluble”. The same measure for “MAHHHHHHMVVLKGGGTTYAVGNGRQMPWEEVPEGFKRRLAEQEEITPCVELRAIAQRCIEVEGFWAPNCVEATEQFHSCQAQHLAGCLPNWTHHNNNNINN”: “not soluble”; for “MAHHHHHHMWSPSNKRDSLINSDDTFFPFLFHFPGSHPRQMLSSFFASRSRGSWIPAVDISEQDDGYILVADLPEVKKEDLRVYTESSSIICISGNRKHILKQDEHQLLVAERGAGRFERCFDLPTSVDSSKIKASFNDQQLNLSIPKLRNSKSGASNSVTID”: “soluble”. “MAHHHHHHMYNFFASVNAPSTPPQKQPQVEPSLPPSACHHHVAASSLLDGMTAHNASLWLLNASQQRSLSYAHSGGGGDNLAGAEQEKRTAASQFYSTFPTAAAPPPSSGVQSLHGVGQQPAQQPHKHLCTSILQSYEHVGNSATPAPGLSSSLPLQEHQSSTWVTLRGGSLRMQLDGVPYSPFASTNASAASQPPDAAHGNEQYYDSTSHHRGYSASSASSIRHTLQVPASPQQQHQQQRLPISSSVWTAATPATAMPASLFASSSIRPLTNTTYPGYSCDWSGNALPTLPAAVPAPYVSGAALPVSSRSQTTYSVMPQPPQSGQPCSPTAHPATHSIMILHPTLDRGTAAILQASADAVNTPLHCLTDVKASEISGTTHYLEVVQGGGSVGDNSKHSYPSSIPIASRQPQPPLQQYYLQPTPQQHQQGQQLAAEQPPVHSCFLTNDGNMSHFVNHTTAAGAIIQPPSSMLSDIASLASLSSRTAGAGRSGAWQQPSTADMGSYKDQSSKLQLQQQQQQQQQQRRPVSAARQVTYTRGIPRRNRDRAVLFVGQLNYEATEADVSQVFSCYGKPLSVVVLKDKGKATKKGGAGGITGGSAATHRKVGGSAFVTYGTTLEADTAIMALHGRYNAKGDDVENVDNSKYLQVSYGQQTGLISAFGMMHAEKLHASKPENPIPLLVKDRTNGKL”: the “soluble on expression in E. coli” value is “not soluble”.

Regarding “MAHHHHHHMYRLVKFLYVNLLASTDLKRKYARAGDWAIVTGATEGIGYAMAMELARRGFNVCVVARTRSKLDAVVAEIEKKGVQGKAVVFDFSTADAQAYKRLFAELELLEVAILVNNVGVNYPYANYFDEADVEEDMKMLKVNCEATLRMTRFIVPRLKAKRSGGIVFLSSISATVPSPLLSAYAGTKSLSLSFGEGLAYELQQFGVDVLTVTPSLVVSRMTQGVSSRKPKETLFMVNAAAMAHQTLNKLGIVTRTAGHINHALLNSCLRILPESLVANKILTMHQAIKRRAERSRTQ”, the “soluble on expression in E. coli” value is listed as “not soluble”.

For the sequence “MAHHHHHHMYSSVRPYKILQKVKRNDNNSNSNSNNNSNSNSNSSSIRNPPNEAKKEPTEREDSGKKKPVEKKKKYEDLKYYECNRKSLSTKSQEAEGRDKITKYNNKTNQHADNNHVKKLQSEKVLKKKEDMLVTLLKKEQSSVHNKKIIIRHLPPTLSEDNFFESFPSNLKDELDYYYYVNGCVPKNQGGDITHSRMYLSFKDDLKTKEFIKTQHGKFFYDSNGGKFKAMVSFAPYQTIIHKNKLDEMNNTLESDAYFLKCCEEMNNPQEPVKKDDDNADLSNVIKEDGVILPPLVVALRKKLKNKKLK”, the “soluble on expression in E. coli” value is reported as “not soluble”. The same measure for “MAHHHHHHSLSSSLANRNIYTVSRLNSEVRLLLENEMGIVWLVGEISNFSAPVSGHWYLTLKDSQAQVKCAMFKGNNRLVNFKPQNGQQVLVKARLSLYEPRGDYQIILESMQPEGDGRLQQQFEQLKMQLAAEGLFAQTRKKPLPENPRCVGIITSRTGAALHDILHVLKRRDPNLPVVIYPTLVQGEEAAIQIAQAIGRANTRAECDVLIVGRGGGSLEDLWCFNHEIVARTIAASEIPIISAVGHEIDVTIADFVADVRAPTPSAAAELVSRDHRHKQQALHQWQAKLASTMRHYLAQQETQFARLQHKLDKQHPQARLERQQQQLDELSLRLEQKMQQRLATQQQRWDRLSHKIELHSPIHLIRQQRFNLIQQEQRINQSIQRYLIQSRHQLALLSEKLDAVSPLATLARGYSVTRTTQGELVRQSAQVKPGDTLVTQLMDGEILSTVNSREG”: “not soluble”; for “MAHHHHNSGPLEFTVSANTNPATDAVRESILANPGFGKYYTDHMVSIDYTVDEGWHNAQVIPYGPIQLDPSAIVLHYGQEIFEGLKAYRWADGSIVSFRPEANAARLQSSARRLAIPELPEEVFIESLRQLIAVDEKWVPPAGGEESLYLRPFVIATEPGLGVRPSNEYRYLLIASPAGAYFKGGIKPVSVWLSHEYVRASPGGTGAAKFGGNYAASLLAQAQAAEMGCDQVVWLDAIERRYVEEMGGMNLFFVFGSGGSARLVTPELSGSLLPGITRDSLLQLATDAGFAVEERKIDVDEWQKKAGAGEITEVFACGTAAVITPVSHVKHHDGEFTIADGQPGEITMALRDTLTGIQRGTFADTHGWMARLN”: “soluble”; for “MAHNYLLEIGLEEIPAHVVTPSIKQLVQKVTAFLKENRLTYDSIDHFSTPRRLAIRINGLGDQQPDIEEDAKGPARKIAQDADGNWTKAAIGFTRGQGLTVDDITFKTIKGTDYVYVHKLIKGKMTKEILTGLKEVVESINFPTMMKWANFDFKYVRPIRWLVSILDEEVLPFSILDVTAGRRTEGHRFLGEAVELANAEEYEAKLHDQFVIVDADERKQLISNQIKAIAESNRWNVTPNPGLLEEVNNLVEWPTAFNGGFDEKYLAIPEEVLITSMRDHQRFFFVRDQAGKLLPNFISVRNGNEEFIENVVRGNEKVLTARLEDAAFFYEEDQKHDINYYVDRLKKVSFHDKIGSMYEKLQRVNSIAKVIGNTLNLNQTELDDIDRATMIYKFDLVTGMVGEFSELQGVMGEKYAQLNGENQAVAQAIREHYMPNSAEGDLPESVTGAVVALADKFDNIFSFFSAGMIPSGSNDPYALRRHAYGIVRILNSRDWQLDLNQFKSQVKTELAENGTAFGVDVDQNFDQVLNFFNDRIKQLLDHQKISHDIVETVLTGNNHD”: “not soluble”.

“MAHTKKRIFDGLYAQLEETDGNVVLFSAKGEPSVIFEITNPVQQLCTDAEQYMLFQDVLSNVVQTLGEGYALQKQDVLCKQSYHHEVPEDAEFLTKSYFRYFEGREFTEIRTYLILTQEAQRSQFVQYDPKKWLDFHSKVSKVSDILKEKNIKYRKLSKEEVNEYCHRFMAFQFRHGPFSMTNFKASDEYLKIGDRVVRSYPLVDIDEINLPSLVKPYTQMNINGYGIATDLFSFLTSVPHADCVVFNQVVQIPNQRKLLRKLQAKAKRHGSMPDPSNKIAKEDIEEVLDRLAVDSTQLVYCNFNILVSCLVDKVTPVTSYLETKLYECGIMPSRTAYNQLELFTDSFPGNGYAFNPDYDLFLTLSDVALCFFFKEHLKGSEDTPLTTYYTDRQGLPVCIDITGKEGKVKMTDNANFFCIGPSGSGKSFHMNSVVRQLLEQNTDVVMVDTGDSYEGICGYYKGTYISYSKEKPISMNPFKVTKEEYDLNFGEKKNFLKSLIFLIFKGNEFPSKIEDMLINQTIVEYYEAYFHPFTKFTEKEREGLRQKLLVASKMEEDYDKFSHSMEDIDAQIREAEMDKQAESRALMLPAEARRLKLLRQCRSLYALAQDEAASKGEKERALQIIENYKKELYNNSMLIKIDKQIDHIEEQKRRLKVRVLSFNSYYEFALERIPQIVAQEKIQFNIRDFAAILKQFYRGGELEMTLNSDLNVNLFDEQFIVFEIDKIKDDPVLFPIVVLIIMDVFLQKMRIKKGRKALIIEEAWL”: the “soluble on expression in E. coli” value was “not soluble”. In the case of “MAIETAILEKIKQYQTIIIHRHQRPDPDCIGSQLALRAILRASFPEKTVVAVGKHYPGFDWMGQADQEVSDDTYHQALVIVVDTANQPRVDDERWQTGAAVIKIDHHPNDDAFGDLQWVLPQASSTSEIIYDWFEANHADLTMPDDAARLLYAGIVGDTGRFMYPATSANTFAVAGKLLAYDFSMTAVNQAEDEISPEMARLSAYAYQNLEILPSGAAYLKLTDEIVESFGLAASDSTSAIVPLPGKITSVVAWAIFVESKDKTFRVRLRSKGPSINELAKRHGGGGHALASGAAAKDQAEIDQVIHELDQLVADTKGENELEHHHHHH” it was “soluble”; in that of “MAIGVQKKTSTPLDVGTEQEPTNLEKTIGTLRRCLQIAGTSNKPGSRSAKNSISEESNDLTMEESVPEASKWPHCQHMISQDEAPRNDELASPNIRIVAYKDESQINDIMRLITKDLSEPYSIYTYRYFLHNWPEYCFLAYDQTNNTYIGAVLCKLELDMYGRCKGYLAMLAVDESCRRLGIGTRLVRRALDAMQSKGCDEIVLETEVSNKNAQRLYSNLGFIRQKRLLKYYLNGGDAFRLKLIFTSRRVRSLNNQENYQPRCRVNEDDTPDEEEGTY”, “not soluble”.

For “MAIIIGADKAGQELKEVIKDYLKEGKYEVVDVSENEVRDFVDTTLAVVKEVNASDDNLGIVIDAYGVGSFMVATKIKGMVAAEVSDERSAYMTRGHNNARIITLGSEISAPGIAKNIIKGFVEGKYDGGRHQVRVDMLNKMC”, the “soluble on expression in E. coli” value was “soluble”. Turning to “MAIKNAFYAQSGGVTAVINASAAGLLETARAHSDKIGKVYAGRNGIIGALTEDLIDTSAESTEAIRALRHTPSGAFGSCRYKLKSLEDNRREYERLIEVFKAHDIGYFFYNGGGDSADTCLKVSQLAGTLGYPIQAIHVPKTVDNDLPITDCCPGFGSVAKYIAVSMLEASFDVASMAKTSTKVFILEVMGRHAGWIAAAGGLASNEDHEVPIIILFPEVTFDQEKFLAKTDHYVKEYGYCTVVVSEGVKGTDGKFLSDQGLRDAFGHAQLGGVAPVIANIVKNGLGLKYHWGVADYLQRAARHIASGTDVEQAYAMGKAAVEYAIAGHNSVMPTIERISSSPYAWKTGMVELSKVANVEKMMPADFISEDGFGITGKCREYLSPLIEGEDYPPYKNGLPDYVRLKNVAVTKKLAEFKILEHHHHHH”, the “soluble on expression in E. coli” value is reported as “not soluble”.

The values above are taken from the DeepSol protein solubility set.
